The values that follow come from paper doi:10.1101/2025.07.23.666473.

This assay addresses NaV1.5 (mouse (endogenous in heart)) (UniProt Q9JJV9). The assay can be described thus: co-IP.
Sequence of UniProt Q9JJV9 (Q9JJV9 whole entry): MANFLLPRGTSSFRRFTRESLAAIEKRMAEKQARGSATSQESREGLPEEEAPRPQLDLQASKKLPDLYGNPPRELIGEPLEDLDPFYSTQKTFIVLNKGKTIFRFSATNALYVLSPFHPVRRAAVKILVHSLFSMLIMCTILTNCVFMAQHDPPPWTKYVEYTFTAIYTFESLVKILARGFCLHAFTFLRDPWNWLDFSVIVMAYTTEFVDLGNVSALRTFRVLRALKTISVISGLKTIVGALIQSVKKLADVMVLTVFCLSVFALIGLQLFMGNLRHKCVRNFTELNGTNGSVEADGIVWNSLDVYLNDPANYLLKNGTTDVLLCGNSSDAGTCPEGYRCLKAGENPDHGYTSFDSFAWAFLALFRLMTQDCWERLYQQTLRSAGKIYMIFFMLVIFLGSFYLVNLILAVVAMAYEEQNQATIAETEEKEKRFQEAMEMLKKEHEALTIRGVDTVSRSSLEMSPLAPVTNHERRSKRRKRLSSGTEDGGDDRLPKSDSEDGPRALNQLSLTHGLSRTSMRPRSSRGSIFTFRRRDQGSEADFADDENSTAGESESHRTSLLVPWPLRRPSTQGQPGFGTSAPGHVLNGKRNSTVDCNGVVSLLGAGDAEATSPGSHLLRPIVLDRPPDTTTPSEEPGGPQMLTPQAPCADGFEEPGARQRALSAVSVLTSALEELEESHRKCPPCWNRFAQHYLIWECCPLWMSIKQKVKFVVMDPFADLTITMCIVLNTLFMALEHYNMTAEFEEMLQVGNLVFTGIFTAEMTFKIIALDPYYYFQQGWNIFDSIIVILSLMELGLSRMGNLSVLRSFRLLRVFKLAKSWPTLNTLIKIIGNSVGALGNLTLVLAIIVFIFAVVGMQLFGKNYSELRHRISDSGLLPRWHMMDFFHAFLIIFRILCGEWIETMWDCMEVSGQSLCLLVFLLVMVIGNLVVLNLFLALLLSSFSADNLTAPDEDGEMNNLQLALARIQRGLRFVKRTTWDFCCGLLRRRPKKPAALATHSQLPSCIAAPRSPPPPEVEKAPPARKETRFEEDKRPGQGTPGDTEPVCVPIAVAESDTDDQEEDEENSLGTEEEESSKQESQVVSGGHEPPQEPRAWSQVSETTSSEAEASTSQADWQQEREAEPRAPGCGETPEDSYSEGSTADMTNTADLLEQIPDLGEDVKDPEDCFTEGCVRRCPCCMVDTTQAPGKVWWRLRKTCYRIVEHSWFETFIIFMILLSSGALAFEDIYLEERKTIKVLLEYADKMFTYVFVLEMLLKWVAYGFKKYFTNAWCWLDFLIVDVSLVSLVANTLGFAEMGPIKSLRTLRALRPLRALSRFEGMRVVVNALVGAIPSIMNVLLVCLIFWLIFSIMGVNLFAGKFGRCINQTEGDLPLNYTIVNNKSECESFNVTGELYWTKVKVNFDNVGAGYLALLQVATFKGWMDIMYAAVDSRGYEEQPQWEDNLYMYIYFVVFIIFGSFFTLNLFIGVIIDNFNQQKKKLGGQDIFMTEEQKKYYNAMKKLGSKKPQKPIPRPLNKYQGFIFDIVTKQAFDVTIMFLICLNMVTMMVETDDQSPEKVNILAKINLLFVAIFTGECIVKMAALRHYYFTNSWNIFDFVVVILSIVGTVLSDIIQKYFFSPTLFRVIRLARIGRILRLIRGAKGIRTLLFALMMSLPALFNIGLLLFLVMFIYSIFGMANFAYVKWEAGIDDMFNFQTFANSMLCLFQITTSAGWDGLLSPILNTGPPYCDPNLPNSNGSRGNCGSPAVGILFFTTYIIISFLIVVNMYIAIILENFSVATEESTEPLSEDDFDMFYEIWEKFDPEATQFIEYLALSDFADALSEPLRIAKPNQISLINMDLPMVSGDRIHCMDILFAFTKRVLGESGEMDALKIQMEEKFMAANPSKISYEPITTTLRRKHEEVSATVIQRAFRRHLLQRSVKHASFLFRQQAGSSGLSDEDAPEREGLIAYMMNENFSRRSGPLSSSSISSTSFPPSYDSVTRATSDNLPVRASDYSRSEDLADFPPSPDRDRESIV

With “FGF13 (from UniProt P70377 1-245) (natural protein)”, the percent of total FGF13 depleted with NaV1.5 (in complex) stood at 35%.
